How the values were obtained:
[1] = biological target: HIV-1 p24 capsid protein from the BMJ4 strain (recombinant, full-length) (HIV-1 strain BMJ4 (subtype C)); assay: crystal structure
[2] = biological target: HIV-1 p24 capsid protein from the BMJ4 strain (recombinant, full-length) (HIV-1 strain BMJ4 (subtype C)); assay: SEC; analytic gel filtration, G5000PWxl column in phosphate-buffered saline pH 7.4, 0.5 ml/min, Agilent1200 HPLC
[3] = biological target: HIV-1 p24 capsid protein from the BMJ4 strain (recombinant, full-length) (HIV-1 strain BMJ4 (subtype C)); assay: AUC; sedimentation velocity, 0.9 mg/ml in phosphate-buffered saline pH 7.4, 20°C, 45,000 rpm; c(s) scaled to c(M)
[4] = biological target: HIV-1 p24 capsid protein from the BMJ4 strain (recombinant, full-length) (HIV-1 strain BMJ4 (subtype C)); assay: non-reducing SDS-PAGE; recombinant p24 proteins; loading buffer with 0.1% SDS, no BME, sample not boiled; called native gel in the text
[5] = biological target: p24 of HIV-1 MJ4 virus (from the infectious clone) (HIV-1 strain BMJ4 (subtype C)); assay: non-reducing SDS-PAGE
[6] = biological target: C-terminal domain (CTD) of BMJ4 p24 (HIV-1 strain BMJ4 (subtype C)); assay: non-reducing SDS-PAGE; C-terminal domain of BMJ4 p24 in non-reducing condition

Substance: HIV-1 p24 capsid protein from the BMJ4 strain (recombinant, full-length) (natural protein)
- stoichiometry N [1]: 2
- stoichiometry N [2]: 2
- stoichiometry N [3]: 2
- stoichiometry N [4]: 2

Substance: p24 of HIV-1 MJ4 virus (from the infectious clone) (natural protein)
- stoichiometry N [5]: 2

Substance: C-terminal domain (CTD) of BMJ4 p24 (domain or fragment)
- stoichiometry N [6]: 2
